The record followed here is US20240239894A1 (AstraZeneca / MedImmune, published 2024).

Residue numbers refer to the chain shown, from its start. Where two headings read alike, the source gives them in different places.

Assay [1] deals with T1, huB7-H3 (human, UniProt Q5ZPR3 29-461, limits assumed).
T1 construct: Sourced antigen; construct not described; also called Human B7-H3
T1 sequence (looked up): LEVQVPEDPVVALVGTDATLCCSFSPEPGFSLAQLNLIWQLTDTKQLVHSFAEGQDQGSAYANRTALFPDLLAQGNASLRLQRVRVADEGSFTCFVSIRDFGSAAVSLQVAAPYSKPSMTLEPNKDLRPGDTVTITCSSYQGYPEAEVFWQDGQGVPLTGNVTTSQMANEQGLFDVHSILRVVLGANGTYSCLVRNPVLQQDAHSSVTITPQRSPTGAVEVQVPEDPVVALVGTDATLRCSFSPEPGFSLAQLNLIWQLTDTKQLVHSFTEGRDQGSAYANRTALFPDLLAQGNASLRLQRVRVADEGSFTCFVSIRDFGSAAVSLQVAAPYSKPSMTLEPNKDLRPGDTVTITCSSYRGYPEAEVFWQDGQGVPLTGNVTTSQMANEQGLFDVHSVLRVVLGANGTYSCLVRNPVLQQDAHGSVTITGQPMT
In words: ELISA. (In an ELISA, binding on a coated surface is turned into a signal by an enzyme label.)

The target in assay [2] is T2, huBTN3A2 (human, UniProt P78410 30-248, limits assumed).
T2 construct: Sourced antigen; construct not described; also called Human BTN3A2
The experiment in a line: ELISA.

Assay [3] concerns the target T3, huB7-H2 (human, UniProt O75144 19-258).
T3 construct: Sourced antigen; construct not described; also called Human B7-H2
T3 sequence (looked up): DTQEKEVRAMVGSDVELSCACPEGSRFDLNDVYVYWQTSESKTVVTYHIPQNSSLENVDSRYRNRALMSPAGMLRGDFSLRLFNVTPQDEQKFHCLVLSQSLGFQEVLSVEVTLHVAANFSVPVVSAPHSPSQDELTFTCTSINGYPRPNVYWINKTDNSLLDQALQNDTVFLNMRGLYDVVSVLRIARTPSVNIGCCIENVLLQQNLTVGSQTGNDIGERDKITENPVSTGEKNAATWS
In words: ELISA.

Assay [4] deals with T4, Human B7-H4-Fc (Human B7H4 ECD, Fc_6His) (human).
T4 construct: also called FcHis6 tagged human B7-H4
T4 sequence (Q7Z7D3 whole entry, looked up): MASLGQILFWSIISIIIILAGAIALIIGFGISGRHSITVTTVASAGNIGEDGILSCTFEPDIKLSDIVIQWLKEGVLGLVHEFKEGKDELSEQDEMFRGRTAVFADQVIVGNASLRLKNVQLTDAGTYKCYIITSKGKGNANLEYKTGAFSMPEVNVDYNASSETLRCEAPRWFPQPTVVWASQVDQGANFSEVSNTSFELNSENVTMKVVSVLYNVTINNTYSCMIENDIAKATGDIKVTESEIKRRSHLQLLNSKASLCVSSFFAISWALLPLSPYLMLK
In words: HTRF binding, human IgG1-TM. A general note: TR-FRET usually uses a lanthanide donor and a delayed reading to cut background.

Assay [5] has as its target T5, Murine B7-H4 ECD-Flag-His10 (monomeric) (mouse, UniProt Q7TSP5 25-257).
T5 construct: extracellular domain; also called FlagHis10 murine B7-H4
T5 sequence (looked up): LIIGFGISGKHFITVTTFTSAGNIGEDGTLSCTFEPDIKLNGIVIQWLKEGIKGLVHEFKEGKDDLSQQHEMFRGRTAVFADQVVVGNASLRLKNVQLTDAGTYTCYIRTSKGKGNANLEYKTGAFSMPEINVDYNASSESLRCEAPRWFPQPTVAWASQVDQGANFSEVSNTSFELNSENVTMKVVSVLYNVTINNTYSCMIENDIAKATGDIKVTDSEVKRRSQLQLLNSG
The experiment in a line: Octet; summary table, repeats Table 9 (hIgG1-TM).

Assay [6] addresses T6, Human B7-H4 ECD-Flag-His10 (monomeric) (human, UniProt Q7Z7D3 25-259).
T6 construct: Minimally biotinylated for KinExA; also called hB7H4-ECD-Flag-His10; B7-H4-FLAG
T6 sequence: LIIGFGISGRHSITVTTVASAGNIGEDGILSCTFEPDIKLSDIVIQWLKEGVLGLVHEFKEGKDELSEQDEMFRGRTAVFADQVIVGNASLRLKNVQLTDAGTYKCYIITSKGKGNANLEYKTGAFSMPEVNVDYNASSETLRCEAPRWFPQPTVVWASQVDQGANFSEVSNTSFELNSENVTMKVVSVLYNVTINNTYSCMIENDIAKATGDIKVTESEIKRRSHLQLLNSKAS
The experiment in a line: Octet; summary table, rounded from Table 9 (hIgG1-TM). For orientation: In BLI a coated tip is dipped into the sample, and binding shifts an interference pattern.

Assay [7] has as its target T5, Murine B7-H4 ECD-Flag-His10 (monomeric). In words: Octet BLI; end of the range tied to the member by Table 9.
The target of assay [8] is T6, Human B7-H4 ECD-Flag-His10 (monomeric). The description is as above.
The target of assay [9] is T7, Cyno B7-H4-Fc (Cyno B7H4 ECD, FcTM_6His) (cynomolgus monkey).
T7 construct: extracellular domain; also called cynomolgus B7-H4-Fc
The experiment in a line: HTRF binding, human IgG1-TM.

In assay [10] the target is T8, Human B7H4 ECD (SV), splice variant, 10His_FLAG (human).
T8 construct: also called B7-H4-SV
In words: Octet; summary table, repeats Table 9 (hIgG1-TM).

For assay [11], the target named is T8, Human B7H4 ECD (SV), splice variant, …. The experiment in a line: Octet BLI; end of the range tied to the member by Table 9.
Assay [12] deals with T6, Human B7-H4 ECD-Flag-His10 (monomeric). The experiment in a line: ELISA, absorbance 450 nm; x axis printed as antigen concentration (µg/ml).
The target in assay [13] is T4, Human B7-H4-Fc (Human B7H4 ECD, Fc_6His). The assay is described as above.
The target of assay [14] is T6, Human B7-H4 ECD-Flag-His10 (monomeric). The assay is described as above. The source holds these as a separate data set.

T2 sequence (P78410 30-248 limits assumed): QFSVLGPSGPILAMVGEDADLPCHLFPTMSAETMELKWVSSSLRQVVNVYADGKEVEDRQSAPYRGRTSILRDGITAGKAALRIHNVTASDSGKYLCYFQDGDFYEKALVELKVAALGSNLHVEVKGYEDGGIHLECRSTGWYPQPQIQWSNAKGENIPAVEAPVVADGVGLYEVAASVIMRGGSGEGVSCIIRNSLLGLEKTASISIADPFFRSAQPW

B1: ZY0EP0-C07 human IgG1-TM (antibody, V domains shown)
VH: QVQLVESGGVLVKPGGSLRLSCAASGFTLSDYYMSWIRQAPGMGLEWVSYISSSGSTIYYTDSVKGRFTISRDSAKNSLYLQMNSLRAEDTAVYYCARDGVGFDYWGQGTLVTVSS
VL: EIVLTQSPGTLSLFPGERATLSCRASQSVSSSYLAWYQQKPGQSPRLLIYAASSRATGIPDRFSGSGSGTDFTLTISRLEPEDFAVYYCQQYGSSPLYTFGQGTKLEIK
notes: also called ZY0EPO-C07
Broadly, the EC50 is the midpoint of the concentration-response curve. One may read the Kd as the equilibrium constant for the complex coming apart. Low values mean tighter binding, high ones weaker binding. For B1, the binding result in assay [1], in assay [2] and in assay [3] was “no binding” in each case. The EC50 in assay [4] worked out at 0.00031 µM; in [9], 0.00039 µM. Besides, the Max worked out at 1210 in assay [4] and 890 in assay [9]. Further, the dissociation constant Kd was 0.011 µM in assay [5], 0.009 µM in assay [6], 0.01 to 0.6 µM in assay [7] and 0.01 to 0.025 µM in assay [8].

B2: ZY0EOB-F05 human IgG1-TM (antibody, V domains shown)
VH: QVQLQESGPGLVKPSQTLSLTCTVSDGSISSGGYYWSWIRQHPGKGLEWIGNIYYSGSTYYNPSLKSRVTISVDTSKNQFSLKLNSVTAADTAVYYCATEKALATVTPSGYENYYTVDVWGQGTTVTVSS
VL: DIQLTQSPSFLSASVGDRVTITCWASQGISSYLAWYQQKPGKAPKLLIYAASTLQSGVPSRFSGSGSGTEFTLTISSLQPEDFATYYCQHLNSYPLTFGGGTKVEIK
Take B2: the binding result in assay [1], in assay [2] and in assay [3] was “no binding” throughout. In addition, the EC50 in assay [4] and in assay [9] was 0.00015 µM throughout. For the same molecule, the Max turned out to be 1870 in [4] and 1480 in assay [9]. Further, the Kd in assay [5] is 0.025 µM; in assay [10] it was 0.174 µM; in assay [6] it was 0.013 µM; in [11], 0.2 to 1.6 µM.

B3: ZY0EQD-E02 human IgG1-TM (antibody, V domains shown)
VH: QVQLQQWGAGLLKPSETLSLTCAVYGGSFSGYYWNWIRQPPGKGLEWIGEINHSGSTSYNPSLKSRVTISVDTSKNQFSLKLSSVTAADTAVYYCARVLYNWNVDSWGQGTLVTVSS
VL: DIQMTQSPSSLSASVGDRVTITCRASQDIRNDVGWYQQKPGKAPKRLIYAASRLQSGVPSRFSGSGSGTEFTLTISSLQPEDFATYYCLQHNSYPRTFGQGTKVEIK
In general, EC50 (read off the curve) refers to the concentration at which the effect is half-maximal. In the case of B3, the binding result in assay [1], in assay [2] and in assay [3] was “no binding” throughout. The figures for the EC50 in assay [4] and in assay [9] were 0.00033 µM and 0.00028 µM, respectively. Further, the Max was 1270 in assay [4] and 1100 in assay [9]. Moreover, the equilibrium dissociation constant (Kd) in [5] is 0.621 µM; in assay [10], 0.801 µM; in assay [6], 0.014 µM; in [7], 0.01 to 0.6 µM. Also, the “EC50 (read off the curve)” value in assay [12] is approximately 0.08 mg/L; in assay [13], approximately 0.09 mg/L.

B4: ZY0EPQ-E02 human IgG1-TM (antibody, V domains shown)
VH: B3 VH with S58N, S70L, V98N, V104L
VL: B3 VL with D28G, V33L, K42R, A50V, R53S
As to B4, the binding result in assay [1], in [2] and in assay [3] was “no binding” throughout. The concentration giving a half-maximal response (EC50) in assay [4] worked out at 0.00041 µM; in assay [9], 0.00035 µM. Besides, the values for the Max in assay [4] and in [9] were 1090 and 934, respectively. The dissociation constant Kd is 0.396 µM in assay [5]; 1.66 µM in [10]; 0.026 µM in [6]; 0.01 to 0.025 µM in assay [8]; 0.2 to 1.6 µM in [11]. Also, the concentration for a half-maximal effect (EC50 (read off the curve)) in assay [14] was approximately 0.3 mg/L.
